Data as given in the nanobody polyreactivity screen of Harvey et al. (2022).

Test: yeast display, Sf9 membrane polyspecificity reagent, FACS + sequencing; frameworks hold sequencing errors
Outline: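 Using colony PCR, genes from sorted yeast display clones were amplified, then sequenced on MiSeq at 2 × 250 and filtered by CDR length. The clones had been stained with 10% biotinylated, detergent-solubilized Sf9 membrane reagent for 1 hour at 4 °C and sorted by FACS into low and high (top ~1%) gates on anti-HA and streptavidin fluorescence. Polyreactivity labels come from the gate of origin.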
In the case of “QVQLVESGGGLVQAGGSLRLSCAASGLTFYHYTMGWYRQAPGKERELVAAITKNGGSTYYADSVKGRFTISRDNAKNTVYLQMNSLKPEDTAVYYCNVGPRRVDRSRAASSDYDYWGQGTQVTVSS”, the “polyreactivity (PSR sort gate)” value is reported as “high polyreactivity”.
In the case of “QVQLVESGGGLVQAGGSLRLSCAASGLTFYKNAMGWYSQAPGKERELVAAITQSGGSTYYADSVKGRFTISRDNAKNTVYLQMNSLKPEDTAVYYCAAATYLNGNNYYWGQGTQVTVSS”, the “polyreactivity (PSR sort gate)” value is reported as “high polyreactivity”.
For “QVQLVESGGGLVQAGGSLRLSCAASGLTFYPYAMGWSRQAPGKERELVAAINWSGTTTYYADSVKGRFTISRDNAKNTVYLQMNSLKPEDTAVYYCNADVYYEPTTGYYLWDYDYWGQGTQVTVSS”, the “polyreactivity (PSR sort gate)” value was “low polyreactivity”.
With “QVQLVESGGGLVQAGGSLRLSCAASGLTFYPYAMGWYRQAPGKERELVAAITRSGTSTFYADSVKGRFTISRDNAKNTVYLQMNSLKPEETAVYYCAKGYFFVGTDWESYYWGQGTQVTVSS” the “polyreactivity (PSR sort gate)” value was “low polyreactivity”.
In the case of “QVQLVESGGGLVQAGGSLRLSCAASGLTFYQNAMGWYRPAPGTERELVAGISSVGSTKYADSVKGRFTISRDNAKNTVYLQMNSLKPEDTAVYYCAPRFYAFRKGYYYWGQGTQVTVSS”, the “polyreactivity (PSR sort gate)” value is reported as “high polyreactivity”.
In the case of “QVQLVESGGGLVQAGGSLRLSCAASGLTFYSYAMGWYRQAPGKERELVAAISKRGTNTFYADSAKGRFTISRDNAKNTVYLQMNSLKPEDTAVYYCAVDLSDSDYYWGQGTQVTVSS”, the “polyreactivity (PSR sort gate)” value is reported as “low polyreactivity”.
With “QVQLVESGGGLVQAGGSLRLSCAASGLTFYSYAMGWYRQAPGKERELVAAITISGGSTYADSVKGRFTISRDNAKNTVYLQMNSLKPEDTAVYYCAVDDFRNPDYDSWGQGTQVTVSS” the “polyreactivity (PSR sort gate)” value was “low polyreactivity”.
For “QVQLVESGGGLVQAGGSLRLSCAASGLTFYSYAMGWYRQAPGKERELVATIRWSGGSTYYADSVKGRFTISRDNAKNTVYLQMNSLKPEDTAVYFCAADRRINYDGLDMDYWGQGTQVTVSS”, the “polyreactivity (PSR sort gate)” value was “low polyreactivity”.
With “QVQLVESGGGLVQAGGSLRLSCAASGLTFYTYAMGWYRQAPGKERELVAAISSGGSTNYADSVKGRFTISRDNAKNTVYLQMNSLKPEDTAVYYCASGGQYYIIRYDYWGQGTQVTVSS” the “polyreactivity (PSR sort gate)” value was “low polyreactivity”.
For “QVQLVESGGGLVQAGGSLRLSCAASGLTFYWYAMGWYRQAPGKERELVAAITSTGSTYYADSVKGRFTISRDNAKNTVYLQMNSLKPEDTAVYYCNADFPANWGWDYDYWGQGTQVTVSS”, the “polyreactivity (PSR sort gate)” value was “low polyreactivity”.
With “QVQLVESGGGLVQAGGSLRLSCAASGLTFYYNAMGWYRQAPGKERELVAVIRGSGGSTYYADSVKGRFTISRDNAKNTVYLQMNSLKPEDTAVYYCAARVAASRRYYYWGQGTQVTVSS” the “polyreactivity (PSR sort gate)” value was “high polyreactivity”.
With “QVQLVESGGGLVQAGGSLRLSCAASGLTFYYYAMGWYRQAPGKERELVADISYSGGSTYYADSVKGRFTISRDNAKNTVYLQMNSLKPEDTAVYYCAAEGGYTISGSYDYWGQVTQVTVSS” the “polyreactivity (PSR sort gate)” value was “low polyreactivity”.
In the case of “QVQLVESGGGLVQAGGSLRLSCAASGLTFYYYAMGWYRQAPGKERELVARISSGTSTYYADSVKGRFTISRDNAKNTVYLQMNCMKPEDTAVYYCTARRKLGSTHGPWGGLEYWGEGTQVTVSS”, the “polyreactivity (PSR sort gate)” value is reported as “low polyreactivity”.
For “QVQLVESGGGLVQAGGSLRLSCAASGLTFYYYAMGWYRQAPGKERQLVAAISRSGGSTYYADSVKGRFTISRDNAKNTVYLQMNSLKPEDTAVYYCAAREPYEGQRYYYEYYYWGQGTQVTVSS”, the “polyreactivity (PSR sort gate)” value was “high polyreactivity”.
With “QVQLVESGGGLVQAGGSLRLSCAASGLTIFVNAMGWYRQAPGKERELVATISGGGSTYYADSVKGRFTISRDNAKNTVYLQMNSLKPEDTAVYYCNAADVGGPWWYPYTYNYWGQGTQVTVSS” the “polyreactivity (PSR sort gate)” value was “low polyreactivity”.
With “QVQLVESGGGLVQAGGSLRLSCAASGLTIGSNVMGWYRQAPGKERELVAAISQSGGRTYYADSVKGRFTISRDNAKNTVYLQMNSLKQEDTAVYYCAKRLRSFYGRPMGDYWGQGTQVTVSS” the “polyreactivity (PSR sort gate)” value was “high polyreactivity”.
For “QVQLVESGGGLVQAGGSLRLSCAASGLTIRNYAMGWYRQAPGKERELVAAITVSGGSTYYADSVKGRFTISRDNAKNTVYLQMNSLKPEDTAVYYSSARVIHTTYSRNYYYWGQGTQVTVSS”, the “polyreactivity (PSR sort gate)” value was “high polyreactivity”.
For “QVQLVESGGGLVQAGGSLRLSCAASGLTIVWYGMVWYRQAPGKERELVAAITRGGSTYYADSVKGRFTISRDNAKNTVYLQMNSLKPEDTAVYYCAATSTYRARFEYWGQGTQVTVSS”, the “polyreactivity (PSR sort gate)” value was “high polyreactivity”.
With “QVQLVESGGGLVQAGGSLRLSCAASGLTIWRYALGWYRQAPGKEREFVATISQNGGRTYYADSVKGRFTISRDNAKNTVYVQMNSLKPEDTAVYYCADDDWRWGYDYWGQGTQVTVSS” the “polyreactivity (PSR sort gate)” value was “high polyreactivity”.
With “QVQLVESGGGLVQAGGSLRLSCAASGLTIYHYSMGCYRQAPGKERELGAAISGNGVSTYYADSVKGRFTISRDNAKNTVYLQMNSLNPEDTAVYYCNVVFRFNSFDFYYWGLGTQVTVSS” the “polyreactivity (PSR sort gate)” value was “high polyreactivity”.
In the case of “QVQLVESGGGLVQAGGSLRLSCAASGLTIYPNAMGWYRQAPGKERELVAAITYSGDTYYADSVKGRFTISRDNAKNTVYLQMNSLKPEDTAVYYCATDVDWAYGYQYEYWGQGTQVTVSS”, the “polyreactivity (PSR sort gate)” value is reported as “low polyreactivity”.
For “QVQLVESGGGLVQAGGSLRLSCAASGLTLDPYAMGWSRQAPGKERELVAAISWSGGGTTYADSVKGRFTISRDNAMNTVYLQMNSLKPEDTAVYYCAAAAPHLSAKMDYWGQGTQVTVSS”, the “polyreactivity (PSR sort gate)” value was “low polyreactivity”.
In the case of “QVQLVESGGGLVQAGGSLRLSCAASGLTLFYYVMGWYRQAPGKERELVAANTTSGGRTYYADSVKGRFTISRDNAKHTVYLQMNSLKPEDTAVYYCAAQSSVAYIHTPTYRYDYWGQGTQVTVSS”, the “polyreactivity (PSR sort gate)” value is reported as “high polyreactivity”.
In the case of “QVQLVESGGGLVQAGGSLRLSCAASGLTLGDNAMGWSRQAPGNERELVASITNGGSTNYADSVKGRFTISRDNAKNTVYLQMNSLNPEDTAVYYCAVEWTWRSTAYSGGAFDYWGQGTQVTVSS”, the “polyreactivity (PSR sort gate)” value is reported as “low polyreactivity”.
In the case of “QVQLVESGGGLVQAGGSLRLSCAASGLTLGSYAMGWYRQAPGKERELVAAISRRSGRTYYADSVKGRFTISRDNAKNTVYLQMNSLKPEDTAVYYCAAEIPYYVDTPGDDYWGQGTQVTVSS”, the “polyreactivity (PSR sort gate)” value is reported as “low polyreactivity”.
In the case of “QVQLVESGGGLVQAGGSLRLSCAASGLTLKRYAMGWYRQAPGKERELVAAISTRGGSTYYADSVKGRFTISRDNAKNTVYLQMNSLKPEDTAVYYCAAGDYWGQGTQVTVSS”, the “polyreactivity (PSR sort gate)” value is reported as “high polyreactivity”.
For “QVQLVESGGGLVQAGGSLRLSCAASGLTLRENAMGWYRQAPGKERELVAAITNGGSTYYADSVKGRFTISRDNAKNTVYLQMNSLKPEDTAVYYCAADNLTYVISWDSDYWGQGTQVTVSS”, the “polyreactivity (PSR sort gate)” value was “low polyreactivity”.
In the case of “QVQLVESGGGLVQAGGSLRLSCAASGLTLRNSAMGWYRQAPGKERELVAAITTGGGRTYYADSVKGRFTISRDNAKNTVYLQMNSLKPEDTAVYYCAKKPSSARYVTIGFDYWGQGTQVTVSS”, the “polyreactivity (PSR sort gate)” value is reported as “low polyreactivity”.
For “QVQLVESGGGLVQAGGSLRLSCAASGLTLYDYAMGWYRQAPGKERELVADIDFNGGSTSYADSVKGRFTISRDNAKNTVYLQMNSLKPEDTAVYYCNTRDRGDVVTGLDYWGQGTQVTVSS”, the “polyreactivity (PSR sort gate)” value was “low polyreactivity”.
For “QVQLVESGGGLVQAGGSLRLSCAASGLTLYKYAMGWYRQADGKVRELVATSRSRGTSTYYADSVKGRFTISRDNAKNTVYLQMNSLKPEDTAVYDCAADYLYRWLFAYNGGMDYCGQGTQVTVSS”, the “polyreactivity (PSR sort gate)” value was “high polyreactivity”.
In the case of “QVQLVESGGGLVQAGGSLRLSCAASGLTLYLYTMGWYRQAPGTERELVASIDSGTSTKYADSVKGRFTISRDNAKNTVYLQMNSLKPEDTAVYYCAAGVWVTRYFGYYYWGQGTQVTVSS”, the “polyreactivity (PSR sort gate)” value is reported as “low polyreactivity”.
In the case of “QVQLVESGGGLVQAGGSLRLSCAASGLTLYLYTMGWYRQAPRTDRELVASIDSGTSTKYADSVKGRFTISRDHAKYTVYLQMNRLKPVDTAGYDCAAGVWVTRYFGYYYWGQGTQVTVSS”, the “polyreactivity (PSR sort gate)” value is reported as “low polyreactivity”.
In the case of “QVQLVESGGGLVQAGGSLRLSCAASGLTSDYNAMGWYRQAPGKERELVAAISSGGRTYYADSVKGRFTISRDNAKNTVYLQMNSLKPEDTAVYYCAAEFRVLRGYQYDYWGQGTQVTVSS”, the “polyreactivity (PSR sort gate)” value is reported as “high polyreactivity”.
For “QVQLVESGGGLVQAGGSLRLSCAASGLTSYDNTMGWYRQAPGKERELVARIRRTGGGTYYADSVKGRFTISRDNAKNTVYLQMNSMKPEDTAVYYCAATITPYDYDYIWFVYSDHDYWGQGTQVTVSS”, the “polyreactivity (PSR sort gate)” value was “low polyreactivity”.
In the case of “QVQLVESGGGLVQAGGSLRLSCAASGLTVGGNVMGWYRQAPGKERELVAAISRSGDRTYYADSVKGRFTISRDNAKNTVYLQMNSLKPEDTAVYYCAVRVLYRQVFRYDYWGQGTQVTVSS”, the “polyreactivity (PSR sort gate)” value is reported as “high polyreactivity”.
For “QVQLVESGGGLVQAGGSLRLSCAASGLTYANAKGWYRQAPGKERELVATIRYSGGSTYYADSVKGRFTISRDNAKNTVYLQMNSLKPEDTAVYYCAARRTAGYRSGEYDYWGQGTQVTVSS”, the “polyreactivity (PSR sort gate)” value was “high polyreactivity”.
In the case of “QVQLVESGGGLVQAGGSLRLSCAASGLTYYTYAMGWYRQAPGKERELVAAITASGGRTYYADSVKGRFTISRDNAKNTVYLQMNSLKPEDTAVYYCAADIRGDTYDYWGQGTQVNVSS”, the “polyreactivity (PSR sort gate)” value is reported as “high polyreactivity”.
With “QVQLVESGGGLVQAGGSLRLSCAASGMIFGYYVMGWYRQAPGKERELVAAINSGGNTNYADSVKGRFTISRDNAKNTVYLQMNSLKPEDTAVYYCNRSYDSTDIREDYWGQGTQVTVSS” the “polyreactivity (PSR sort gate)” value was “low polyreactivity”.
In the case of “QVQLVESGGGLVQAGGSLRLSCAASGMIFKYYVMGWYRKAPGKERELVDDIRCSGGITSYADSVKGRFTISRDNAKNTVYLQMNSLKPEDTAVYYCAVAHSRLRTAYTFSVQRYDYWGQGTQVTVSS”, the “polyreactivity (PSR sort gate)” value is reported as “low polyreactivity”.
With “QVQLVESGGGLVQAGGSLRLSCAASGMTFAENAMGWYREAPGKERELVAANSASGGSTYYADSVKGRFTISRDNAKNTVYLQMNSLKPEDTAVFYCATRVAFLWPRRDYDYWGQGTQVTVSS” the “polyreactivity (PSR sort gate)” value was “low polyreactivity”.
